# Laboratory results taken from US20170165339A1 (IMMATICS BIOTECHNOLOGIES, published 2017).
# Target: HLA-A*02 (human)
# Assay: UV peptide-exchange ELISA, yield grade
binder,measurement,value
SLTEVSLPL [SLTEVSLPL (SEQ ID NO: 45)],peptide exchange yield,50 to 75%
